Numbering of substitutions follows the chain as printed. Names and notes keep the numbering of the source. Values joined by “and” are separate entries in the source; they are usually repeats but may differ in a detail not shown here. Equal entries are not always repeated.

Seven molecules from patent US7884199B2, “HCV NS3-NS4 protease resistance mutants” (priority 2003, dated 2011) can be followed below.

The test system of data set [1] is wild type HCV replicon cells (high efficiency Con1 replicon). The experiment in a line: HCV replicon cell assay, 48-hour. It counts as cell-based, Hepatitis C virus. The conditions noted are these: read-out: IC50. An excerpt:
(§1) During the course of generating of the HCV sub-genomic replicon stable cell lines, several different patterns of adaptive mutations were identified. One pattern has three substitutions in the HCV nonstructural proteins, which were introduced into the original pBR322-HCV-Neo plasmid by site-directed mutagenesis to generate the second-generation sub-genomic replicon plasmid, pBR322-HCV-Neo-mADE. When the T7 run-offRNA transcripts from the Sca I-linearized pBR322-HCV-Neo-mADE plasmid were electroporated into Huh7 cells, stable replicon cell colonies were formed at a much higher efficiency than the original Con1 replicon RNA. The resistance mutations identified in this study were introduced into the pBR322-HCV-Neo-mADE replicon plasmid by site-directed mutagenesis. Stable replicon cell lines were generated using the T7 transcripts derived from either wild type pBR322-HCV-Neo-mADE or the ones with the resistance mutations.
(§2) Cells containing hepatitis C virus (HCV) replicon were maintained in DMEM containing 10% fetal bovine serum (FBS), 0.25 mg per ml of G418, with appropriate supplements (media A).
On day 1, replicon cell monolayer was treated with a trypsin:EDTA mixture, removed, and then media A was diluted into a final concentration of 100,000 cells per ml with. […]
A Taqman real-time RT-PCR quantification assay was set up with two sets of specific primers and probe. […] Total RNA extractants from treated HCV replicon cells was added to the PCR reactions for quantification of both HCV and BVDV RNA in the same PCR well. […] The level of HCV RNA in each well was calculated according to a standard curve run in the same PCR plate. The percentage of inhibition or decrease of HCV RNA level due to compound treatment was calculated using the DMSO or no compound control as 0% of inhibition. The cytotoxicity of the compounds was measured using a mitochondrial enzyme-based cell viability assay, CellTiter 96 AQueous One Solution Cell Proliferation Assay (Promega). […]
Background: In antiviral work, replicon cells carry a viral genome segment that copies itself.

The test system of data set [2] is series A (VX-950-resistant) replicon cells. The experiment in a line: HCV replicon cell assay, 48-hour. It counts as cell-based, Hepatitis C virus. Particulars: series A (VX-950-resistant) replicon cells.
The next data set relates to A156T HCV replicon cells. The experiment in a line: HCV replicon cell assay, 48-hour. In kind it is cell-based, Hepatitis C virus. Particulars: 48-hour assay.
Text: as §1, §2
(§3) On day 1, replicon cell monolayer was treated with a trypsin:EDTA mixture, removed, and then media A was diluted into a final concentration of 100,000 cells per ml with. 10,000 cells in 100 ul were plated into each well of a 96-well tissue culture plate, and cultured overnight in a tissue culture incubator at 37° C.
(§4) On day 2, compounds (in 100% DMSO) were serially diluted into DMEM containing 2% FBS, 0.5% DMSO, with appropriate supplements (media B). The final concentration of DMSO was maintained at 0.5% throughout the dilution series.
(§5) Media on the replicon cell monolayer was removed, and then media B containing various concentrations of compounds was added. Media B without any compound was added to other wells as no compound controls.
(§6) Cells were incubated with compound or 0.5% DMSO in media B for 48 hours in a tissue culture incubator at 37° C. At the end of the 48-hour incubation, the media was removed, and the replicon cell monolayer was washed once with PBS and stored at −80° C. prior to RNA extraction.
(§7) Culture plates with treated replicon cell monolayers were thawed, and a fixed amount of another RNA virus, such as Bovine Viral Diarrhea Virus (BVDV) was added to cells in each well. RNA extraction reagents (such as reagents from RNeasy kits) were added to the cells immediately to avoid degradation of RNA. Total RNA was extracted according the instruction of manufacturer with modification to improve extraction efficiency and consistency. Finally, total cellular RNA, including HCV replicon RNA, was eluted and stored at −80° C. until further processing.
(§8) A Taqman real-time RT-PCR quantification assay was set up with two sets of specific primers and probe. One was for HCV and the other was for BVDV. Total RNA extractants from treated HCV replicon cells was added to the PCR reactions for quantification of both HCV and BVDV RNA in the same PCR well. Experimental failure was flagged and rejected based on the level of BVDV RNA in each well. The level of HCV RNA in each well was calculated according to a standard curve run in the same PCR plate. The percentage of inhibition or decrease of HCV RNA level due to compound treatment was calculated using the DMSO or no compound control as 0% of inhibition. The cytotoxicity of the compounds was measured using a mitochondrial enzyme-based cell viability assay, CellTiter 96 AQueous One Solution Cell Proliferation Assay (Promega).
(§9) Table 6 summary: Three HCV sub-genomic replicon stable cell lines, including the wild-type, and two mutants, A156T and A156V, were generated using the T7 RNA runoff transcripts from the corresponding high efficiency Con 1 replicon plasmids.

The test system of a further data set is A156V HCV replicon cells. The experiment in a line: HCV replicon cell assay, 48-hour. It counts as cell-based, Hepatitis C virus.
Text: as §1, §2, §3, §4, §5, §6, §7, §8, §9

In data set [3] the test system is wild-type HCV Con1 sub-genomic replicon cells. The experiment in a line: HCV replicon cell assay, 48-hour. In kind it is cell-based, Hepatitis C virus. Particulars: 48-hour assay. The procedure:
as §2, §3
On day 2, compounds (in 100% DMSO) were serially diluted into DMEM containing 2% FBS, 0.5% DMSO, with appropriate supplements (media B). […]
A Taqman real-time RT-PCR quantification assay was set up with two sets of specific primers and probe. […] Total RNA extractants from treated HCV replicon cells was added to the PCR reactions for quantification of both HCV and BVDV RNA in the same PCR well. […] The level of HCV RNA in each well was calculated according to a standard curve run in the same PCR plate. The percentage of inhibition or decrease of HCV RNA level due to compound treatment was calculated using the DMSO or no compound control as 0% of inhibition. The cytotoxicity of the compounds was measured using a mitochondrial enzyme-based cell viability assay, CellTiter 96 AQueous One Solution Cell Proliferation Assay (Promega).

Data set [4] deals with series C (double-resistant) replicon cells. Put plainly: HCV replicon cell assay, 48-hour. It counts as cell-based, Hepatitis C virus. The conditions noted are these: series C replicon cells at day 52.
Description: Culture plates with treated replicon cell monolayers were thawed, and a fixed amount of another RNA virus, such as Bovine Viral Diarrhea Virus (BVDV) was added to cells in each well. […]
The test system of the next data set is D168V HCV replicon cells. Put plainly: HCV replicon cell assay, 48-hour. In kind it is cell-based, Hepatitis C virus. Particulars: D168V replicon cells, 48-hour assay; read-out: Replicon IC50.
Text: as §1, §2, §3, §4, §5, §6, §7, §8
(§10) Four HCV sub-genomic replicon stable cell lines, including the wild type (wt), and three mutants, A156S, D168V and D168A, were generated using the T7 RNA runoff transcripts from the corresponding high efficiency Con1 replicon plasmids.

In a further data set the test system is D168A HCV replicon cells. Put plainly: HCV replicon cell assay, 48-hour. It counts as cell-based, Hepatitis C virus. The conditions noted are these: 48-hour assay.
Text: as §1, §2, §3, §4, §5, §6, §7, §8, §10

For a further data set, the system named is A156S HCV replicon cells. Put plainly: HCV replicon cell assay, 48-hour. In kind it is cell-based, Hepatitis C virus. The conditions noted are these: read-out: IC50.
Text: as §1, §2, §3, §4, §5, §6, §7, §8, §10

The nature of data set [5]: Substrate kinetic parameters of NS3 serine protease domains with KK-NS4A peptide and FRET substrate. In kind it is biochemical, Hepatitis C virus. The protocol: Enzymatic activity was determined using a modification of the assay described by Taliani et al., [Taliani et al., Anal. Biochem., 240, pp. 60-67 (1996)]. An internally quenched fluorogenic peptide (FRET substrate), Ac-DED(EDANS)EEαAbuψ[COO]ASK (DABCYL)-NH2, was purchased from AnaSpec Incorporated (San Jose, Calif.). The assay was run in a continuous mode in a 96-well microtiter plate format. The buffer was composed of 50 mM HEPES (pH 7.8), 100 mM NaCl, 20% glycerol, 5 mM DTT, and 25 μM KK4A peptide ([…]; SEQ ID NO:5). The KK4A peptide represents the central region of the NS4A cofactor from genotype 1a with lysine residues added for improved solubility [Landro et al. Biochemistry, 36, pp. 9340-9348 (1997)]. The reaction was initiated by the addition of the FRET substrate after a 10-min pre-incubation of the buffer components with 2 nM of the NS3 protease at room temperature. The reaction was monitored at 30° C. for 20 min using a Molecular Devices fmax fluorometric plate reader. The filters for excitation and emission wavelengths were 355 nm and 495 nm, respectively. For determination of substrate kinetic parameters, concentrations of the FRET peptide were varied from 0.5-7.0 μM. Inter-molecular quenching was not observed in this range. The substrate kinetic parameters, Km and Vmax, were determined by fitting the data to the Michaelis-Menten equation. […] This mixture was incubated for an additional 15 min at room temperature prior to an incubation with the FRET substrate for another 20 min at 30° C. Seven to eight concentrations of compound were assayed, and the resulting data were fitted to the integrated form of Morrison's equation for tight binding inhibition [J. F. Morrison, Biochim. Biophys. Acta, 185 pp. 269-286 (1969)]. All substrate and inhibitor data were fitted using Marquardt-Levenberg nonlinear regression with GraphPad Prism software.
Five HCV NS3 serine protease domain proteins, including the genotype 1a and 1b wild-type (wt) proteases, and three mutants (A156S, D168V, and D168A) of the genotype 1b, were expressed and purified as described in Materials and Methods. The kcat and Km values of these NS3 proteases were determined using the KK-NS4A core peptide and the FRET substrate.
Table 4 summary: Three HCV NS3 serine protease domain proteins of the Con1 strain, including the wild-type proteases and two mutants, A156T and A156V, were expressed and purified. The kcat and Km values of these NS3 proteases were determined using the KK-NS4A core peptide and the FRET substrate, and the average of two independent assays was shown.

The mark [6] stands for this setting: Table 1, FRET substrate, KK-NS4A core peptide.
Setting [7] is: Table 4, Con1 strain, average of two independent assays.

In general, IC50 refers to the concentration needed to halve the response being measured. Regarding BILN 2061 [reference compound], the half-inhibitory concentration (IC50) in [1] was 4 nM; in data set [2] it was roughly 10 nM; in the data set with A156T HCV replicon cells it was 1090 nM; with A156V HCV replicon cells (48-hour assay), 5760 nM; in data set [3] it was 1 nM; in data set [4], roughly 3000 nM. For the same molecule, the half-inhibitory concentration (IC50) is 5090 nM and 4650 nM in the data set with D168V HCV replicon cells; 1860 nM in the data set on D168A HCV replicon cells; 7 nM in the data set on A156S HCV replicon cells. In addition, the “decrease in sensitivity conferred by the mutation” value in the data set with A156V HCV replicon cells is on record as “more than 1.400 fold”. The “IC50 higher than against the series A replicon cells” value in data set [4] worked out at 300 fold.

B1: D168A (1b) (protein)
chain: APITAYSQQTRGLLGCIITSLTGRDRNQVEGEVQVVSTATQSFLATCVNGVCWTVYHGAGSKTLAGPKGPITQMYTNVDQDLVGWQAPPGARSLTPCTCGSSDLYLVTRHADVIPVRRRGDSRGSLLSPRPVSYLKGSSGGPLLCPSGHAVGIFRAAVCTRGVAKAVAFVPVESMETTMRSHHHHHH
What is called Km is the substrate concentration at which the rate is half of its maximum. For the molecule B1, the “change of substrate kinetic parameters (kcat, kcat/Km) compared with wild type” value in data set [5] (FRET substrate) is recorded as “less than 10 fold”. Further, in [5] (setting [6]), the Kcat came to 0.3 s⁻¹ and the Michaelis constant (Km) amounted to 2 µM.

B2: Wt (1b): wild-type HCV NS3 serine protease domain, genotype 1b (Con1 strain) (protein)
chain: B1 chain with A168D
For the molecule B2, the values for the Kcat in [5] (setting [6]) and in data set [5] (setting [7]) were 1.0 s⁻¹ and 1.0 s − 1, respectively. Also, the Km in [5] (setting [6]) and in data set [5] (setting [7]) was 1.1 µM throughout.

B3: A156T (protein)
chain: B1 chain with A156T, A168D
Regarding B3, in [5] (setting [7]), the Kcat amounted to 0.2 s − 1 and the Km stood at 1.3 µM.

B4: A156V (protein)
chain: B1 chain with A156V, A168D
Regarding B4, in [5] (setting [7]), the Kcat is given as 0.6 s − 1 and the Km turned out to be 2.6 µM.

B5: D168V (1b) (protein)
chain: B1 chain with A168V
With B5, in data set [5] (setting [6]), the Kcat turned out to be 0.6 s⁻¹ and the Michaelis-Menten constant (Km) turned out to be 1.2 µM.

B6: A156S (1b) (protein)
chain: B1 chain with A156S, A168D
On to B6, for which, in data set [5] (setting [6]), the Kcat turned out to be 0.6 s⁻¹ and the Km amounted to 0.9 µM.
